Source: the Human Domainome abundance scans (Beltran et al. 2025)

B1: Far upstream element-binding protein 2, residues 142 to 214; numbered along this chain, Q92945 (parent)
chain: RTSMTEEYRVPDGMVGLIIGRGGEQINKIQQDSGCKVQISPDSGGLPERSVSLTGAPESVQKAKMMLDDIVSR
B2: Tripartite motif-containing protein 44, residues 174 to 218; numbered along this chain, Q96DX7 (parent)
chain: VAKRKCPDHGLDLSTYCQEDRQLICVLCPVIGAHQGHQLSTLDEA

Variants of: B1
Assay: abundance fitness (aPCA) (normalised: wild type 0, dead -1); higher = more abundant; growth selection in yeast, the domain comes from the species named
Conditions: Homo sapiens

Abundance fitness, by site and new letter:
S3: G 0.003, A 0.028, Y 0.125, K 0.219, N 0.224, H 0.009, F 0.251, E 0.151, P 0.043, D 0.17, W 0.05, I 0.137, Q 0.124, L 0.074, T 0.213, C 0.152, V 0.144
G13: R 0.07, M -0.052, L -0.174, P -0.124, D 0.134, Y -0.005, S 0.122, Q 0.09, A -0.072, C -0.127, T 0.035, I -0.039, K 0.066, W -0.097, V -0.389, F -0.184, N 0.18, E 0.12
E7: S -0.088, T 0.046, K -0.115, V -0.194, N -0.109, L 0.021, Y 0.028, A -0.136, H 0.043, F 0.074, P -0.137, Q 0.017, W -0.1, I -0.028, M -0.02, D -0.036, C -0.178
M4: N -0.178, D -0.106, K 0.029, Q 0.057, T -0.063, P -0.365, H -0.107, A -0.716, E -0.085, I -0.096, S -0.072, W -0.15, C 0.045, V -0.069, L -0.002, R -0.079, G -0.431, F 0.02
D12: R 0.088, E -0.003, H 0.013, Y -0.204, C -0.175, P 0.051, Q -0.039, G -0.04, F -0.153, W -0.524, T 0.105, K -0.032, N -0.14, V -0.097, I 0.041, S 0.054
T2: P -0.227, C -0.198, A -0.13, L -0.079, V 0.004, Y -0.016, R -0.169, G -0.04, Q -0.421, S 0.071, K -0.007, M 0.104, H -0.138, I -0.04, D 0.003, N 0.109, E -0.025, W -0.567
P11: L -0.362, I -0.277, Y -0.712, Q -0.221, K -0.178, E -0.193, F -1.07, M -0.375, H -0.536, A -0.131, G -0.472, W -0.765, T -0.158, R -0.299, D -0.122, V -0.425, N -0.371
V10: W -0.726, F -0.132, A -0.289, E -0.456, R -0.741, L 0.068, D -0.467, Y -0.224, M 0.041, K -0.603, N -0.567, P -0.456, S -0.628, C -0.137, I -0.02, Q -0.709, T -0.464
E6: N -0.255, L 0.07, I -0.086, Y -0.147, S -0.017, R -0.068, K -0.027, H -0.062, W -0.086, Q 0.045, V 0.097, C 0.051, G -0.189, F -0.1, D -0.171, A -0.021, T 0.125, M 0.187
R1: G -0.071, Y -0.195, I 0.195, W -0.143, E 0.075, F -0.297, S -0.072, P -0.27, M 0.19, H -0.256, L -0.071, Q 0.036, A -0.205, D 0.017, N 0.101, K 0.166
G16: K -0.068, F -0.499, E 0.049, P -0.015, A -0.037, L -0.495, T -0.101, C -0.334, S -0.076, I -0.994, H -0.019, N -0.093, Q -0.034, R -0.078, D 0.136, W -0.229, V -0.619
I18: F -0.122, N -0.345, M -0.17, Q -0.346, P -0.324, S -0.398, G -0.363, H -0.51, L 0.035, E -0.287, T -0.282, C -0.595, V -0.158, K -0.333, A -0.276, D -0.312
L17: P -0.199, C -0.118, A 0.016, E 0.074, K -0.059, D 0.061, Q -0.028, W -0.111, N -0.119, F -0.072, V -0.113, H -0.087, G -0.023, T 0.045, S -0.021, I -0.045, Y -0.147
M14: H -0.235, A -0.111, Y -0.19, I -0.003, F -0.349, K -0.017, E -0.208, P -0.898, L -0.048, W -0.319, R -0.314, G -0.361, S -0.219, N -0.148, T -0.21, V -0.094, D -0.209, Q -0.243
T5: L -0.384, N -0.16, R -0.168, V -0.154, A -0.248, P -0.62, E -0.304, Q -0.117, W -0.456, G -0.485, C -0.125, S -0.11, Y -0.248, F -0.331, H -0.235, D -0.319
R9: V -0.046, S -0.024, T 0.053, G -0.235, D -0.155, E -0.094, F 0.068, W -0.033, K 0.119, Y 0.025, M 0.064, P 0.041, C -0.132, Q 0.137, N 0.078, A -0.145, H 0.135, I 0.055, L 0.076
V15: I -0.06, H -0.214, P -0.462, F -0.076, L 0.068, Q -0.272, Y -0.197, C -0.22, R -0.335, N -0.376, S -0.219, G -0.282, E -0.03, W -0.081, T -0.227, D -0.217, K -0.251, A -0.053, M 0.035
Y8: I -0.061, C -0.609, R -0.455, S -0.472, G -0.576, N -0.536, Q -0.51, H -0.12, K -0.417, E -0.496, V -0.057, W -0.007, L -0.089, F -0.116, P -0.342, T -0.214, D -0.477

Variants of: B2
Assay: as above
Conditions: Homo sapiens

Abundance fitness of substitutions, site by site:
E44: Y -0.232, N -0.014, Q -0.031, T 0.014, S -0.01, V -0.065, M -0.058, R -0.032, W -0.14
A45: M -0.029, V -0.022, E -0.096, R -0.006, I 0.168, T 0.021, C -0.058, P 0.004, L -0.093, D 0.002, W -0.036, S -0.243, Q 0.044, K -0.046
